This note sets out measurements from article PMC4085576.

The target in this assay is microtubules (X-rhodamine labeled, biotin-linked to the surface). The assay can be described thus: TIRF microscopy of GFP-tagged protein on immobilised microtubules.

B1: KIF7_(560)-GFP, N-terminal motor domain and first coiled-coil of KIF7 with a C-terminal GFP tag (domain or fragment)
chain: MGLEAQRLPGAEEAPVRVALRVRPLLPKELLHGHQSCLRVEPERGRITLGRDRHFGFHVVLGEDTGQEAVYQACVQPLLEAFFEGFNATVFAYGQTGSGKTYTMGEASVASLHEDEQGIIPRAMAEAFKLIDENDLLDCLVHVSYLELYKEEFRDLLEVGTASRDIQLREDDRGNVVLCGVKEVDVEGLDEVLSLLEMGNAARHTGATHFNRLSSRSHTVFTVTLEQRGRTPSRLPRPAAGHLLVSKFHFVDLAGSERVLKTGSTGERLKESIQINSTLLALGNVISALGDPQRRGSHIPYRDSKITRILKDSLGGNAKTVMIACVSPSSSDFDETLNTLNYASRAQNIRNRATVNWHPEAERVPEEQAAGARGPPRHRSETRIIHRGRRVPCPAVGSAAVAAGLGAECARCRARTSAAYSLLRELQAEPGLPGAAARKVRDWLCAVEGERSTLSSASGPDSGIESAPAEDQAAQGTSGRKGDEGTQQLLTLQSQVARLEEENRDFLAALEDAMEQYKLQSDRLREQQEEMVELRLRLELAQPGWGAPGLLQGLPPGSFV
Turning to B1, the fold increase in filament-bound KIF7 with 2 mM AMP-PNP against 1 mM MgATP turned out to be 2 fold.
